# T1: EGF6+MEMBRANE PROXIMAL PEPTIDE
# T1 construct: also called Hu DLL3 EGF6+membrane proximal peptide on HEK293 cells
# T1 membrane-anchored DLL3 subdomain construct: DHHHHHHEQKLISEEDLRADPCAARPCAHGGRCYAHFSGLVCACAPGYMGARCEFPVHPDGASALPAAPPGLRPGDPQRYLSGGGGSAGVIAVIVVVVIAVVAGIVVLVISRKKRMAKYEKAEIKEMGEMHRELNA
# T2: human DLL3 (endogenous, on SCLC cell lines NCI-H82 and SHP77 and in SCLC tissue) (human, UniProt Q9NYJ7 27-618)
# T2 sequence (looked up): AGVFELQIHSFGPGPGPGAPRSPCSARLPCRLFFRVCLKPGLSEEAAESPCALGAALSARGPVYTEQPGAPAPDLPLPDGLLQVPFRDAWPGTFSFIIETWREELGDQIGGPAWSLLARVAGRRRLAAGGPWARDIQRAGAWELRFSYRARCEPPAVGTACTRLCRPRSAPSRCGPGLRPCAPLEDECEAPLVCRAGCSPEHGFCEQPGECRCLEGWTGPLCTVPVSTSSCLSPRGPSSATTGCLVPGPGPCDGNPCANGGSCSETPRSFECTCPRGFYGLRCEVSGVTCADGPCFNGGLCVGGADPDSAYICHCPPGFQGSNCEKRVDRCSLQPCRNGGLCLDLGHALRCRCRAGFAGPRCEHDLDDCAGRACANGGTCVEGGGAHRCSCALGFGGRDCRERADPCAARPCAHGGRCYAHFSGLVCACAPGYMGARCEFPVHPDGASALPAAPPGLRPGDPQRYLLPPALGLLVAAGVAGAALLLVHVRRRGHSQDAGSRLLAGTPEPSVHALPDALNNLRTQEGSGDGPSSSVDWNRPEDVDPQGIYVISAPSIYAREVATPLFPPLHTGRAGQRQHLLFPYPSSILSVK
# T3: Cyno DLL3-His (cynomolgus monkey, UniProt Q9NYJ7 27-492 (human entry))
# T3 construct: also called cy DLL3; recombinant cyno DLL3-ECD
# T3 chain: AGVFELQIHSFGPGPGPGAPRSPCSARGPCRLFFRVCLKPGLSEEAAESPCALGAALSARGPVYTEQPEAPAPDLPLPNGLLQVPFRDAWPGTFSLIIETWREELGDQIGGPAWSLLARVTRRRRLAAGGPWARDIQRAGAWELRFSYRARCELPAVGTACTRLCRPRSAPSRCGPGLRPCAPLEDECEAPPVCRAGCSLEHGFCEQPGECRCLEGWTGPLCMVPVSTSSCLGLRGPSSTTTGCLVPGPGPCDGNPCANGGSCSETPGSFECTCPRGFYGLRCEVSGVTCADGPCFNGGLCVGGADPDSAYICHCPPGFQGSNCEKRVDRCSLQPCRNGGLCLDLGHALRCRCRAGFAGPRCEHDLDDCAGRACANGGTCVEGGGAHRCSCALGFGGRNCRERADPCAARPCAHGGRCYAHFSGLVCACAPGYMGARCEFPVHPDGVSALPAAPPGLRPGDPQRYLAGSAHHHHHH
# What was measured:
# [1] = target: T1, EGF6+MEMBRANE PROXIMAL PEPTIDE; assay: flow cytometry on HEK293 cells expressing the DLL3 subdomain construct, 1.6 nM binder, PE anti-human secondary, control: secondary antibody only
# Experimental: DLL3/CD3 binding proteins were produced by transient transfection of CHO-E cells with the pTT5 vectors carrying the chain-encoding genes, as described in Example 2. […] Bound molecules were detected with PE-conjugated anti-human secondary antibody (Sigma-Aldrich, #P8047). As negative control, cells were incubated with secondary antibody only.
# The samples were measured by flow-cytometry. […] The sequences of the epitope domains are listed in Example 5, Table 3.
# [2] = target: T2, human DLL3 (endogenous, on SCLC cell …); assay: cell-based or functional assay
# [3] = target: T4, chicken egg white lysozyme (chicken, UniProt P00698 19-147); assay: SPR (Biacore T200), lysozyme coupled to CM5 chip, non-specific binding assay
# T4 construct: also called Lysozyme (positive)
# T4 sequence (P00698 19-147): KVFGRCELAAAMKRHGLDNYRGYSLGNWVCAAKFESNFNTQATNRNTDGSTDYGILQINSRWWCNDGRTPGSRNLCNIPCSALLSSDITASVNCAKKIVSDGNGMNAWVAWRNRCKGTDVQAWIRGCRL
# Experimental: The experiment was performed on a Biacore T200. The dilution, surface preparation, and binding experiments were performed at 25° C. in 1×HBS-EP buffer prepared from 10× HBS-EP. The flow rate for both the immobilization protocol and binding experiment was at 5 μL/min.
# To prepare the surface for the non-specific binding experiment, chicken egg white lysozyme and trypsin inhibitor from glycine max soybean were coupled manually to a series S CM5 chip with the surface density of 3000-5000 RU using the amine coupling kit according to the manufacture instructions.
# Samples were prepared at 1 μM in 1×HBS-EP buffer. The samples were injected over activated surfaces with a 10 min association and 10 min dissociation. The data was collected using Biacore T200 Control Software version 2.0.1 and analyzed using Biacore T200 Evaluation Software version 3.0.
# [4] = target: T5, Human CD3 E+G HuFc-6xHis (human); assay: SPR (ProteOn XPR36), CD3εγ-Fc amine-coupled, bispecific as analyte, equilibrium fit, Example 4A
# T5 construct: also called hu CD3εγ-Fc
# T5 sequence (chain, as listed by the source limits assumed): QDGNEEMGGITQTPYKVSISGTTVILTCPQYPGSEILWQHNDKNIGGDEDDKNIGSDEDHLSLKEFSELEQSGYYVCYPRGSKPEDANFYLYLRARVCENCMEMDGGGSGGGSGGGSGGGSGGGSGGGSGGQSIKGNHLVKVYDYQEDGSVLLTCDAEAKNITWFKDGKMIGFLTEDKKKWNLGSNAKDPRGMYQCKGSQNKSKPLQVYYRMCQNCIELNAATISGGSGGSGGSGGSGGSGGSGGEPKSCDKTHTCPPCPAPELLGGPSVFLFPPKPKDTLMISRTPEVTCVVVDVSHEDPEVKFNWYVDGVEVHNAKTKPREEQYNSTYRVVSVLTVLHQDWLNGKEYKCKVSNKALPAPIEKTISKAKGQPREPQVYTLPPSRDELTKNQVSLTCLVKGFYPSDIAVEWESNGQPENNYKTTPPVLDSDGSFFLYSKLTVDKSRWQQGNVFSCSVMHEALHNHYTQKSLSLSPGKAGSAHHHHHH
# Experimental: (§1) The binding affinity of purified DLL3/CD3 bispecific constructs for recombinant human and cyno DLL3-ECD and Fc-fusion proteins of human and cyno CD3 εγ subunits was determined by Surface Plasmon Resonance (SPR), using a ProteOn XPR36 instrument (Bio-Rad). The running buffer and all dilutions (except where stated) were done in PBS-T-EDTA. The GLM sensor chip (Bio-Rad) was normalized and pre-conditioned as per the manufacturer's recommendations. The sensor chip was activated with equal mixture of EDC/s-NHS in the horizontal direction for 300 sec at a flow rate of 30 ul/min and immobilized with protein A/G (20 ug/ml in 10 mM acetate pH 4.5) in the horizontal direction for 300 sec at a flowrate of 30 ul/min resulting in ˜5000 RU of protein A/G on the surface. The sensor chip was deactivated with 1M ethanolamine HCl in the horizontal direction for 300 sec at a flowrate of 30 μl/min.
# For binding kinetic determination to CD3, hu CD3εγ-Fc and cy CD3εγ-Fc (dissolved in pH 4.5 acetate) was immobilized directly onto the sensor surface through amine coupling for 140 sec at a flowrate of 30 μl/min vertically. The baseline was stabilized by injecting PBS-T-EDTA for 60 sec at a flowrate of 40 μl/min horizontally. The analyte (the bispecific molecule) was injected horizontally over the captured CD3εγ-Fc construct for 600 sec at a flowrate of 40 μl/min and a dissociation for 600 sec.
# (§2) The inter spot (interactions with sensor surface) and blank (PBS-T-EDTA) were subtracted from the raw data.
# [5] = target: T3, Cyno DLL3-His; assay: SPR; ratio of the KD values for human and cyno DLL3
# Experimental: as §1
# For binding kinetic determination to DLL3, bispecific molecules were captured individually on the protein A/G surface vertically for 250 sec at a flowrate of 25 μl/min. The baseline was stabilized by injecting PBS-T-EDTA for 60 sec at a flowrate of 40 μl/min horizontally. The analyte (hu DLL3 or cy DLL3) was injected horizontally over the captured antibody for 600 sec at a flowrate of 40 μl/min and a dissociation for 2700 sec.
# as §2
Binder,binding result [1],"EC90, 72 hour cytotoxicity assay (LDH release), non-stimulated PBMCs as effector cells, NCI-H82 target cells [2] [nM]","EC90, 72 hour cytotoxicity assay (LDH release), non-stimulated PBMCs as effector cells, SHP77 target cells [2] [nM]",binding result [3],Kd [4] [nM],Affinity gap KD hu/cyno DLL3 [5]
"DLL3#2/CD3#1 (bispecific antibody, human IgG1, kappa, lambda, L234A L235A, Heterodimer of one DLL3 chain and one CD3 chain (scFab-Fc, knob-in-hole)) chain 1: DIQMTQSPSAMSASVGDRVTITCRASQGISNYLAWFQQKPGKVPEPLIYAASSLQSGVPSRFSGSGSVTEFTLTISSLQPEDFATYYCLQHNSSPYTFGQGTKLEIKRTVAAPSVFIFPPSDEQLKSGTASVVCLLNNFYPREAKVQWKVDNALQSGNSQESVTEQDSKDSTYSLSSTLTLSKADYEKHKVYACEVTHQGLSSPVTKSFNRGECGGGGSEGKSSGSGSESKSTEGKSSGSGSESKSTGGGGSQVQLVQSGAEVKKPGASVKVSCKASGYTFTSYYMHWVRQAPGQGLEWMGIINPSGGSTSYAQKFQGRVTMTRDTSTSTVYMELSSLRSEDTAVYYCARGEAVGGNYYYYGMDVWGQGTTVTVSSASTKGPSVFPLAPSSKSTSGGTAALGCLVKDYFPEPVTVSWNSGALTSGVHTFPAVLQSSGLYSLSSVVTVPSSSLGTQTYICNVNHKPSNTKVDKRVEPKSCDKTHTCPPCPAPEAAGGPSVFLFPPKPKDTLMISRTPEVTCVVVDVSHEDPEVKFNWYVDGVEVHNAKTKPREEQYNSTYRVVSVLTVLHQDWLNGKEYKCKVSNKALPAPIEKTISKAKGQPREPQVYTLPPSREEMTKNQVSLWCLVKGFYPSDIAVEWESNGQPENNYKTTPPVLDSDGSFFLYSKLTVDKSRWQQGNVFSCSVMHEALHNHYTQKSLSLSPG chain 2: EAVVTQEPSLTVSPGGTVTLTCRSSTGAVTTSNYANWVQEKPGQLPRGLIGGTNKRAPWVPARFSGSLLGGKAALTLSGAQPEDEAEYFCALWYSNLWVFGGGTKLTVLGQPKAAPSVTLFPPSSEELQANKATLVCLISDFYPGAVKVAWKADGSPVNTGVETTTPSKQSNNKYAASSYLSLTPEQWKSHRSYSCQVTHEGSTVEKTVAPAECSGGGGSEGKSSGSGSESKSTEGKSSGSGSESKSTGGGGSEVQLVESGGGLVQPGGSLKLSCAASGFTFNTYAMNWVRQAPGKGLEWVARIRSKYNNYATYYADSVKDRFTISRDDSKNTAYLQMNNLKTEDTAVYYCVRHGNFGNSYVSWFAYWGQGTLVTVSAASTKGPSVFPLAPSSKSTSGGTAALGCLVKDYFPEPVTVSWNSGALTSGVHTFPAVLQSSGLYSLSSVVTVPSSSLGTQTYICNVNHKPSNTKVDKRVEPKSCDKTHTCPPCPAPEAAGGPSVFLFPPKPKDTLMISRTPEVTCVVVDVSHEDPEVKFNWYVDGVEVHNAKTKPREEQYNSTYRVVSVLTVLHQDWLNGKEYKCKVSNKALPAPIEKTISKAKGQPREPQVYTLPPSREEMTKNQVSLSCAVKGFYPSDIAVEWESNGQPENNYKTTPPVLDSDGSFFLVSKLTVDKSRWQQGNVFSCSVMHEALHNRFTQKSLSLSPG",binds,2.9,3.4,–,–,–
"DLL3#3/CD3#1 (bispecific antibody, human IgG1, kappa, lambda, L234A L235A, Heterodimer of one DLL3 chain and one CD3 chain (scFab-Fc, knob-in-hole)) chain 1: DIQMTQSPSAMSASVGDRVTITCRASQGISNYLVWFQQKPGKAPKRLIYAVSSLYSGVPSRFSGSGSGTEFTLTISSLQPEDFATYYCLQHDSYPYTFGQGTKLEIKRTVAAPSVFIFPPSDEQLKSGTASVVCLLNNFYPREAKVQWKVDNALQSGNSQESVTEQDSKDSTYSLSSTLTLSKADYEKHKVYACEVTHQGLSSPVTKSFNRGECGGGGSEGKSSGSGSESKSTEGKSSGSGSESKSTGGGGSQVQLVQSGAEVKKPGASVKVSCKASGYTFTSYYVHWVRQAPGQGLEWMVIINPGGGTTSYAQKFLGRVTMTRDTSTNTVYMELKSLRSEDTAVYYCARGEAVTGNYFYYGMDVWGQGTTVTVSSASTKGPSVFPLAPSSKSTSGGTAALGCLVKDYFPEPVTVSWNSGALTSGVHTFPAVLQSSGLYSLSSVVTVPSSSLGTQTYICNVNHKPSNTKVDKRVEPKSCDKTHTCPPCPAPEAAGGPSVFLFPPKPKDTLMISRTPEVTCVVVDVSHEDPEVKFNWYVDGVEVHNAKTKPREEQYNSTYRVVSVLTVLHQDWLNGKEYKCKVSNKALPAPIEKTISKAKGQPREPQVYTLPPSREEMTKNQVSLWCLVKGFYPSDIAVEWESNGQPENNYKTTPPVLDSDGSFFLYSKLTVDKSRWQQGNVFSCSVMHEALHNHYTQKSLSLSPG chain 2: EAVVTQEPSLTVSPGGTVTLTCRSSTGAVTTSNYANWVQEKPGQLPRGLIGGTNKRAPWVPARFSGSLLGGKAALTLSGAQPEDEAEYFCALWYSNLWVFGGGTKLTVLGQPKAAPSVTLFPPSSEELQANKATLVCLISDFYPGAVKVAWKADGSPVNTGVETTTPSKQSNNKYAASSYLSLTPEQWKSHRSYSCQVTHEGSTVEKTVAPAECSGGGGSEGKSSGSGSESKSTEGKSSGSGSESKSTGGGGSEVQLVESGGGLVQPGGSLKLSCAASGFTFNTYAMNWVRQAPGKGLEWVARIRSKYNNYATYYADSVKDRFTISRDDSKNTAYLQMNNLKTEDTAVYYCVRHGNFGNSYVSWFAYWGQGTLVTVSAASTKGPSVFPLAPSSKSTSGGTAALGCLVKDYFPEPVTVSWNSGALTSGVHTFPAVLQSSGLYSLSSVVTVPSSSLGTQTYICNVNHKPSNTKVDKRVEPKSCDKTHTCPPCPAPEAAGGPSVFLFPPKPKDTLMISRTPEVTCVVVDVSHEDPEVKFNWYVDGVEVHNAKTKPREEQYNSTYRVVSVLTVLHQDWLNGKEYKCKVSNKALPAPIEKTISKAKGQPREPQVYTLPPSREEMTKNQVSLSCAVKGFYPSDIAVEWESNGQPENNYKTTPPVLDSDGSFFLVSKLTVDKSRWQQGNVFSCSVMHEALHNRFTQKSLSLSPG",binds,0.9,1.5,no binding (tested: 1 µM),7,1
